In patent publication US20250339569A1 (3B PHARMACEUTICALS, published 2025):
One block for each binder: values may come before it. Starred links: 1 amine or outer side, 2 acyl side, 3 side chain; linkers in the order of their positions; H or OH if unused. Positions of bridges follow the written chain, without caps; N, C: chain ends. Non-standard residues stand in square brackets, D forms with d. Groups on a side chain read outwards from the residue. Primed or numbered codes have the meaning given here. *: point of attachment. Af3(HySuc) = 3-amino-L-phenylalanine acylated on the ring amine with 2-(3,6-dioxo-1,2,3,6-tetrahydropyridazin-4-yl)acetic acid, O=C(Cc1cc(=O)[nH][nH]c1=O)Nc1cccc(C[C@H](N[*:1])C(=O)[*:2])c1; af3(ac-glu) = lower case: 3-amino-D-phenylalanine, ring amine acylated with N-acetyl-D-glutamic acid, CC(=O)N[C@H](CCC(=O)[*:3])C(=O)Nc1cccc(C[C@@H](N[*:1])C(=O)[*:2])c1; af3(ac-asp) = lower case: 3-amino-D-phenylalanine, ring amine acylated with N-acetyl-D-aspartic acid, CC(=O)N[C@H](CC(=O)[*:3])C(=O)Nc1cccc(C[C@@H](N[*:1])C(=O)[*:2])c1; Af3(Ac-Asp) = 3-aminophenylalanine acylated on the ring amine with N-acetyl-aspartic acid; APAc″ = 2-(4-(amino)piperidin-1-yl)acetic acid, NC1CCN(CC(=O)*)CC1; DOTA = O=C(O)CN1CCN(CC(=O)O)CCN(CC(=O)*)CCN(CC(=O)O)CC1; mXylylene = c1cc(C[*:1])cc(C[*:2])c1; Bta = N[C@@H](Cc1csc2ccccc12)C(=O)O; Propanoyl(3-OH) = O=C(CCO)*; APAc = not defined here; Ac5c = NC1(C(=O)O)CCCC1; Apr = not defined here; Ttds″ = Ttds spacer; Sar = CNCC(=O)O

Experiments:
[1] = target: T1, Fc-fusion protein of human carbonic anhydrase IX (human, UniProt Q16790 38-414); assay: SPR, captured hCAIX-Fc; pKD category A: >8.0
Experimental: (§1) Stock solutions of test compounds were prepared by dissolving each compound in DMSO. DMSO stock solution were diluted 1:1000 in Running Buffer without DMSO. […] SPR binding analyses were performed in Single Cycle Kinetic (SCK) mode at 25° C.
(§2) For each test compound, SPR raw data in the form of resonance units (RU) were plotted as sensorgrams using the Biacore™ T200 control software. The signal from the blank sensorgram was subtracted from that of the test compound sensorgram (blank corrected). The blank corrected sensorgram was corrected for baseline drift by subtracting the sensorgram of a SCK run without the test compound (running buffer only). […] Raw data and fit results were imported as text files in IDBS. The pKD value (negative decadic logarithm of dissociation constant) was calculated in the IDBS excel template.

[2] = target: T1, Fc-fusion protein of human carbonic …; assay: SPR, captured hCAIX-Fc; t1/2 category B: 5.1-15.0 min
Experimental: as §1, §2

[3] = target: T1, Fc-fusion protein of human carbonic …; assay: SPR, captured hCAIX-Fc; t1/2 category C: 2.1-5.0 min
Experimental: as §1, §2

pKD [1]: > 8 pkd
t1/2 (half-life of the complex, SPR) [2]: 5.1 to 15 min
Binder: {DOTA-APAc″}-VYCE[dP]D[af3(ac-glu)]LTWSC-NH2 (linker 3-12 via mXylylene; not fully specified) [3BP-4362]

pKD [1]: > 8 pkd
t1/2 (half-life of the complex, SPR) [2]: 5.1 to 15 min
Binder: {DOTA-APAc″}-VYCE[dP]D[Af3(Ac-Asp)]LTWSC-NH2 (linker 3-12 via mXylylene) [3BP-4363]

pKD [1]: > 8 pkd
t1/2 (half-life of the complex, SPR) [3]: 2.1 to 5 min
Binder: {DOTA-Ttds″}-VYCE[Sar]DWLTWQC-NH2 (linker 3-12 via mXylylene; not fully specified) [3BP-3271]

pKD [1]: > 8 pkd
t1/2 (half-life of the complex, SPR) [2]: 5.1 to 15 min
Binder: {DOTA-APAc″}-VYCE[dP]D[af3(ac-asp)]LTWSC-NH2 (linker 3-12 via mXylylene; not fully specified) [3BP-4364]

pKD [1]: > 8 pkd
t1/2 (half-life of the complex, SPR) [3]: 2.1 to 5 min
B1: 3BP-3313 (peptide)
peptide: Ac-VYCE[Sar]DWLTWAC-NH2
modifications: linker 3-12 via mXylylene
SMILES: CC(=O)N[C@H](C(=O)N[C@@H](Cc1ccc(O)cc1)C(=O)N[C@H]1CSCc2cccc(c2)CSC[C@@H](C(N)=O)NC(=O)[C@H](C)NC(=O)[C@H](Cc2c[nH]c3ccccc23)NC(=O)[C@H]([C@@H](C)O)NC(=O)[C@H](CC(C)C)NC(=O)[C@H](Cc2c[nH]c3ccccc23)NC(=O)[C@H](CC(=O)O)NC(=O)CN(C)C(=O)[C@H](CCC(=O)O)NC1=O)C(C)C

pKD [1]: > 8 pkd
t1/2 (half-life of the complex, SPR) [3]: 2.1 to 5 min
Binder: {DOTA-APAc}-VYCE[dP]DW[Ac5c]TWSC-NH2 (linker 3-12 via mXylylene; reading uncertain) [3BP-3587]

pKD [1]: > 8 pkd
t1/2 (half-life of the complex, SPR) [2]: 5.1 to 15 min
Binder: {DOTA-APAc″}-VYCE[dP]D[Af3(HySuc)]LTWSC-NH2 (linker 3-12 via mXylylene) [3BP-4322]

pKD [1]: > 8 pkd
t1/2 (half-life of the complex, SPR) [3]: 2.1 to 5 min
B2: 3BP-3058 (peptide)
peptide: Ac-VYCEGDWLTWAC-NH2
modifications: linker 3-12 via mXylylene
SMILES: CC(=O)N[C@H](C(=O)N[C@@H](Cc1ccc(O)cc1)C(=O)N[C@H]1CSCc2cccc(c2)CSC[C@@H](C(N)=O)NC(=O)[C@H](C)NC(=O)[C@H](Cc2c[nH]c3ccccc23)NC(=O)[C@H]([C@@H](C)O)NC(=O)[C@H](CC(C)C)NC(=O)[C@H](Cc2c[nH]c3ccccc23)NC(=O)[C@H](CC(=O)O)NC(=O)CNC(=O)[C@H](CCC(=O)O)NC1=O)C(C)C

pKD [1]: > 8 pkd
t1/2 (half-life of the complex, SPR) [3]: 2.1 to 5 min
Binder: {DOTA-Ttds″}-VYCEGDWLTWAC-NH2 (linker 3-12 via mXylylene; not fully specified) [3BP-3272]

pKD [1]: > 8 pkd
t1/2 (half-life of the complex, SPR) [3]: 2.1 to 5 min
B3: 3BP-3311 (peptide)
peptide: Ac-VYCE[Sar]D[Bta]LTWQC-NH2
modifications: linker 3-12 via mXylylene
SMILES: CC(=O)N[C@H](C(=O)N[C@@H](Cc1ccc(O)cc1)C(=O)N[C@H]1CSCc2cccc(c2)CSC[C@@H](C(N)=O)NC(=O)[C@H](CCC(N)=O)NC(=O)[C@H](Cc2c[nH]c3ccccc23)NC(=O)[C@H]([C@@H](C)O)NC(=O)[C@H](CC(C)C)NC(=O)[C@H](Cc2csc3ccccc23)NC(=O)[C@H](CC(=O)O)NC(=O)CN(C)C(=O)[C@H](CCC(=O)O)NC1=O)C(C)C

pKD [1]: > 8 pkd
t1/2 (half-life of the complex, SPR) [3]: 2.1 to 5 min
Binder: {Propanoyl(3-OH)}-YCE[dP]DWLTWE([Apr-DOTA])C-NH2 (linker 2-11 via mXylylene; reading uncertain) [3BP-3842]
